For one substance, fluorescence positive cells results are on record in patent EP2056867B1.

The target in test [1] is scavenger receptor CD36. In words: flow cytometry on CD36-transfected CHO cells, rAv17 at 5 µg/ml; detected with an anti-cystatin mAb and a FITC secondary antibody; baseline 20%.
Test [2] has as its target scavenger receptor CD36. In words: flow cytometry on CD36-transfected CHO cells, rAv17 at 2.5 µg/ml; detected with an anti-cystatin mAb and a FITC secondary antibody; baseline 20%.

With “recombinant Acanthocheilonema viteae cystatin (rAv17)”, the values for the fluorescence positive cells in test [1] and in test [2] were 89% and 71%, respectively.
